Results taken from patent EP4786492A1.
Where a chain is given by its changes, count along the chain named. Each block holds one binder with its values, some of them ahead of it.

How the values were obtained:
[1] = target: mouse DLL3 on CHO-K1-mDLL3 cells (mouse) (UniProt O88516); assay: FACS, CHO-K1-mDLL3 cells, 0.032 nM antibody
[2] = target: mouse DLL3 on CHO-K1-mDLL3 cells (mouse) (UniProt O88516); assay: FACS, CHO-K1-mDLL3 cells, 0.8 nM antibody
[3] = target: DLL3 endogenously expressed on NCI-H82 cells (UniProt Q9NYJ7); assay: FACS on NCI-H82 cells; antibody 0.0064 nM
DLL3 endogenously expressed on NCI-H82 cells, sequence (Q9NYJ7 27-618): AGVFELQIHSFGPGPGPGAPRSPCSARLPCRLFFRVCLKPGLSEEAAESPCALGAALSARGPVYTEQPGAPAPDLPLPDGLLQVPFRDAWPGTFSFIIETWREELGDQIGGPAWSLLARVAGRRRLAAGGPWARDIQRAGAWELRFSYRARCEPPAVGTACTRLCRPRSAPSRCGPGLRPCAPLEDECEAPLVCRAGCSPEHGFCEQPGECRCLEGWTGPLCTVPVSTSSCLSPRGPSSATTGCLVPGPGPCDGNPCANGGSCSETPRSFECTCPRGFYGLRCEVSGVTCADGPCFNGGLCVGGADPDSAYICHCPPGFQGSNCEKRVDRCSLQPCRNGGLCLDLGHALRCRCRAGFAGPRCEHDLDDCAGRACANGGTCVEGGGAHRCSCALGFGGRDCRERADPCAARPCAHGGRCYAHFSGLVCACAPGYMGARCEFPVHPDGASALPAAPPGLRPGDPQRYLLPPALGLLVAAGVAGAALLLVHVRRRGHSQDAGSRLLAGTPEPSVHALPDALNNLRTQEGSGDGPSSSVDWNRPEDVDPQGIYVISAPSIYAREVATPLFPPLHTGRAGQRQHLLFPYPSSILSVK

[4] = target: monkey DLL3 on CHO-K1-cyno DLL3 cells (cynomolgus monkey); assay: FACS, CHO-K1-cyno DLL3 cells, 20 nM antibody
monkey DLL3 on CHO-K1-cyno DLL3 cells (cynomolgus monkey), sequence (chain, as listed by the source limits assumed): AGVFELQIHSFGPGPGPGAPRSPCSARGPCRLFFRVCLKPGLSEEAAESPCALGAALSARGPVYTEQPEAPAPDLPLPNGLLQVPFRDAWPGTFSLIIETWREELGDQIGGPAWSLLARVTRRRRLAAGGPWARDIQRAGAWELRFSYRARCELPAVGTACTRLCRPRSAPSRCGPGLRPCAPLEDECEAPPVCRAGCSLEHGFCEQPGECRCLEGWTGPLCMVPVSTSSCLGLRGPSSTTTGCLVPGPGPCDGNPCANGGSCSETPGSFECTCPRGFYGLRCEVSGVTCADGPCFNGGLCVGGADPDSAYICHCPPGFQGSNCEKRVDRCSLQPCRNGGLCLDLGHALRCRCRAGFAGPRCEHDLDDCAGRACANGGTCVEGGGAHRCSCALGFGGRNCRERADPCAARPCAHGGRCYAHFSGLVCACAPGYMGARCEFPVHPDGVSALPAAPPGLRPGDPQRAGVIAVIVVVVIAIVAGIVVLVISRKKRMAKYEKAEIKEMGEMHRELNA

[5] = target: monkey DLL3 on CHO-K1-cyno DLL3 cells (cynomolgus monkey); assay: FACS, CHO-K1-cyno DLL3 cells, 100 nM antibody
[6] = target: human DLL3 protein expressed on CHO-K1 recombinant cells (human DLL3 extracellular segment fused to EpCAM transmembrane and intracellular regions) (human) (UniProt Q9NYJ7); assay: FACS, CHO-K1 hDLL3 cells, 20 nM antibody
human DLL3 protein expressed on CHO-K1 recombinant cells (human DLL3 extracellular segment fused to EpCAM transmembrane and intracellular regions) (human), sequence (Q9NYJ7 other isoform, or with tags, fused parts or gaps limits assumed): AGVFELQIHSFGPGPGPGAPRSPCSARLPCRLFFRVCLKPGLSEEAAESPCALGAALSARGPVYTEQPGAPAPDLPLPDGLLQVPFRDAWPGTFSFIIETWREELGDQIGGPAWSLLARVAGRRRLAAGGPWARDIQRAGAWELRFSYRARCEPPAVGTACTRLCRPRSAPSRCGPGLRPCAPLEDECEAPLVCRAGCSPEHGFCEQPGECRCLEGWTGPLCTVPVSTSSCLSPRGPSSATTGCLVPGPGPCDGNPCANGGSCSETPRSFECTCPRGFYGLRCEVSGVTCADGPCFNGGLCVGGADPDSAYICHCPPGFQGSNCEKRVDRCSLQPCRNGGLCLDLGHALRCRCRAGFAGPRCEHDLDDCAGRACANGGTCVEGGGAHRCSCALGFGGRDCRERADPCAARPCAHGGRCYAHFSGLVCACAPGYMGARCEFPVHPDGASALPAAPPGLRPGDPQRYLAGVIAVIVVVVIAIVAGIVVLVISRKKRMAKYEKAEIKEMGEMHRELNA

[7] = target: DLL3 endogenously expressed on NCI-H82 cells (UniProt Q9NYJ7); assay: FACS on NCI-H82 cells; antibody 0.16 nM
[8] = target: human DLL3 protein expressed on CHO-K1 recombinant cells (human DLL3 extracellular segment fused to EpCAM transmembrane and intracellular regions) (human) (UniProt Q9NYJ7); assay: FACS, CHO-K1 hDLL3 cells, 4 nM antibody
[9] = target: DLL3 endogenously expressed on NCI-H82 cells (UniProt Q9NYJ7); assay: FACS on NCI-H82 cells; antibody 0.032 nM
[10] = target: human DLL3 protein (extracellular segment, His tag) (human) (UniProt Q9NYJ7); assay: SPR (Biacore 8K), antibody captured on Protein A chip, DLL3 antigen in solution, 1:1 Langmuir fit
human DLL3 protein (extracellular segment, His tag) (human), sequence (Q9NYJ7 27-492): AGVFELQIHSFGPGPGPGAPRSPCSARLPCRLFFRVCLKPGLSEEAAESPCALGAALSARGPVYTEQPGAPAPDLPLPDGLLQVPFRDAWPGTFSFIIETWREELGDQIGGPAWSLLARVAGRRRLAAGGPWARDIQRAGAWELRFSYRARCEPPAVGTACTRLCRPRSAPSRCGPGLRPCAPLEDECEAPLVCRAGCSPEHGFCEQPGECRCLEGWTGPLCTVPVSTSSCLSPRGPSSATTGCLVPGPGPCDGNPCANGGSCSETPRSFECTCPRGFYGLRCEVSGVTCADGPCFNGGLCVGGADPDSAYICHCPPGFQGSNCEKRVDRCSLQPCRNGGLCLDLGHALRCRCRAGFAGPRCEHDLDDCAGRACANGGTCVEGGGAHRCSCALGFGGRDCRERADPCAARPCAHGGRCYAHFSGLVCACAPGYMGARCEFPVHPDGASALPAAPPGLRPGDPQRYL

[11] = target: monkey DLL3 on CHO-K1-cyno DLL3 cells (cynomolgus monkey); assay: FACS, CHO-K1-cyno DLL3 cells, 0.16 nM antibody
[12] = target: mouse DLL3 on CHO-K1-mDLL3 cells (mouse) (UniProt O88516); assay: FACS, CHO-K1-mDLL3 cells, 0.0064 nM antibody
[13] = target: DLL3 endogenously expressed on NCI-H82 cells (UniProt Q9NYJ7); assay: FACS on NCI-H82 cells; antibody 20 nM
[14] = target: human DLL3 protein expressed on CHO-K1 recombinant cells (human DLL3 extracellular segment fused to EpCAM transmembrane and intracellular regions) (human) (UniProt Q9NYJ7); assay: FACS, CHO-K1 hDLL3 cells, 100 nM antibody
[15] = target: monkey DLL3 on CHO-K1-cyno DLL3 cells (cynomolgus monkey); assay: FACS, CHO-K1-cyno DLL3 cells, 0.8 nM antibody
[16] = target: DLL3 endogenously expressed on NCI-H82 cells (UniProt Q9NYJ7); assay: FACS on NCI-H82 cells; antibody 0.8 nM
[17] = target: mouse DLL3 on CHO-K1-mDLL3 cells (mouse) (UniProt O88516); assay: FACS, CHO-K1-mDLL3 cells, 20 nM antibody
[18] = target: monkey DLL3 on CHO-K1-cyno DLL3 cells (cynomolgus monkey); assay: FACS, CHO-K1-cyno DLL3 cells, 0.0064 nM antibody
[19] = target: human DLL3 protein expressed on CHO-K1 recombinant cells (human DLL3 extracellular segment fused to EpCAM transmembrane and intracellular regions) (human) (UniProt Q9NYJ7); assay: FACS, CHO-K1 hDLL3 cells, 0.16 nM antibody
[20] = target: DLL3 endogenously expressed on NCI-H82 cells (UniProt Q9NYJ7); assay: FACS on NCI-H82 cells; antibody 4 nM
[21] = target: human DLL4 protein (Acro, Cat. No. DL4-H5227) (human) (UniProt Q9NR61); assay: ELISA, coated hDLL4; maximum over 0.1, 1, 10, 100 nM antibody
human DLL4 protein (Acro, Cat. No. DL4-H5227) (human), sequence (Q9NR61 27-524 limits assumed): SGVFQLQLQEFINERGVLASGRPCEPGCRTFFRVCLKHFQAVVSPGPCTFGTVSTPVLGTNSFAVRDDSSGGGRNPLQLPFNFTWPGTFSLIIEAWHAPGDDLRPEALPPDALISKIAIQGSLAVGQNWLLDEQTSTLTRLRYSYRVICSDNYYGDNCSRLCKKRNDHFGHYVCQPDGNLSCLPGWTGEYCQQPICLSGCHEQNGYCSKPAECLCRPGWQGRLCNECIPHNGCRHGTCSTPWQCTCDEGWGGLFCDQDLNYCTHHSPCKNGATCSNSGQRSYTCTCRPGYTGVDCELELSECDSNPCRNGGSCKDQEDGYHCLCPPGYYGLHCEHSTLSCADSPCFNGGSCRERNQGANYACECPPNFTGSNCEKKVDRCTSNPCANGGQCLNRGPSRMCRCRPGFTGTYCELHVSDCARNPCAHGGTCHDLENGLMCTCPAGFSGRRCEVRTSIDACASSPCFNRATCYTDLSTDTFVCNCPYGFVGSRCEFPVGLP

[22] = target: mouse DLL3 on CHO-K1-mDLL3 cells (mouse) (UniProt O88516); assay: FACS, CHO-K1-mDLL3 cells, 100 nM antibody
[23] = target: human delta-like ligand 3 (DLL3) on SHP77 cells (human) (UniProt Q9NYJ7); assay: FACS on SHP77 cells
human delta-like ligand 3 (DLL3) on SHP77 cells (human), sequence (Q9NYJ7 27-618, stated change not applied): as the sequence (Q9NYJ7 27-618) above

[24] = target: human DLL3 protein expressed on CHO-K1 recombinant cells (human DLL3 extracellular segment fused to EpCAM transmembrane and intracellular regions) (human) (UniProt Q9NYJ7); assay: FACS, CHO-K1 hDLL3 cells, 0.032 nM antibody
[25] = target: mouse DLL3 on CHO-K1-mDLL3 cells (mouse) (UniProt O88516); assay: FACS, CHO-K1-mDLL3 cells, 0.00128 nM antibody
[26] = target: monkey DLL3 on CHO-K1-cyno DLL3 cells (cynomolgus monkey); assay: FACS, CHO-K1-cyno DLL3 cells, 0.032 nM antibody
[27] = target: DLL3 endogenously expressed on NCI-H82 cells (UniProt Q9NYJ7); assay: FACS on NCI-H82 cells; antibody 100 nM
[28] = target: human DLL3 protein expressed on CHO-K1 recombinant cells (human DLL3 extracellular segment fused to EpCAM transmembrane and intracellular regions) (human) (UniProt Q9NYJ7); assay: FACS, CHO-K1 hDLL3 cells, 0.0064 nM antibody
[29] = target: human DLL3 protein expressed on CHO-K1 recombinant cells (human DLL3 extracellular segment fused to EpCAM transmembrane and intracellular regions) (human) (UniProt Q9NYJ7); assay: FACS, CHO-K1 hDLL3 cells, 0.00128 nM antibody
[30] = target: human DLL3 protein expressed on CHO-K1 recombinant cells (human DLL3 extracellular segment fused to EpCAM transmembrane and intracellular regions) (human) (UniProt Q9NYJ7); assay: FACS, CHO-K1 hDLL3 cells, 0.8 nM antibody
[31] = target: human DLL1 protein (Acro, Cat. No. DL1-H52H8) (human) (UniProt O00548); assay: ELISA, coated hDLL1; maximum over 0.1, 1, 10, 100 nM antibody
human DLL1 protein (Acro, Cat. No. DL1-H52H8) (human), sequence (O00548 18-540 limits assumed): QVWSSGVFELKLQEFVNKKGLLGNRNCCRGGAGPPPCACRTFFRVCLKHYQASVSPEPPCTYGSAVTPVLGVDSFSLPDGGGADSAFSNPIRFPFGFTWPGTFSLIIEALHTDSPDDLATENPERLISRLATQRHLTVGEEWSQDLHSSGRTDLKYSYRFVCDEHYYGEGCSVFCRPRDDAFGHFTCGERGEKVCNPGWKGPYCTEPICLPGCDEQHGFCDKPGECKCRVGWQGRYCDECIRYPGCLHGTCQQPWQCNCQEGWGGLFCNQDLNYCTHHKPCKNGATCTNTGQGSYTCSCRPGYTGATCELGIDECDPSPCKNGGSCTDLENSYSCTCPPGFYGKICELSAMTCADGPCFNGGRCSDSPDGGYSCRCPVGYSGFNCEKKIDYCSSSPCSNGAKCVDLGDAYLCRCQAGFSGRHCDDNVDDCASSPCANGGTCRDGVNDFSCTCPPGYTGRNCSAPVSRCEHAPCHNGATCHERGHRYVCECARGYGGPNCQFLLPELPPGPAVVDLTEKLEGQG

[32] = target: mouse DLL3 on CHO-K1-mDLL3 cells (mouse) (UniProt O88516); assay: FACS, CHO-K1-mDLL3 cells, 4 nM antibody
[33] = target: monkey DLL3 on CHO-K1-cyno DLL3 cells (cynomolgus monkey); assay: FACS, CHO-K1-cyno DLL3 cells, 4 nM antibody
[34] = target: mouse DLL3 on CHO-K1-mDLL3 cells (mouse) (UniProt O88516); assay: FACS, CHO-K1-mDLL3 cells, 0.16 nM antibody
[35] = target: monkey DLL3 on CHO-K1-cyno DLL3 cells (cynomolgus monkey); assay: FACS, CHO-K1-cyno DLL3 cells, 0.00128 nM antibody
[36] = target: DLL3 endogenously expressed on NCI-H82 cells (UniProt Q9NYJ7); assay: FACS on NCI-H82 cells; antibody 0.00128 nM

mouse DLL3 on CHO-K1-mDLL3 cells (mouse), sequence (O88516 other isoform, or with tags, fused parts or gaps limits assumed): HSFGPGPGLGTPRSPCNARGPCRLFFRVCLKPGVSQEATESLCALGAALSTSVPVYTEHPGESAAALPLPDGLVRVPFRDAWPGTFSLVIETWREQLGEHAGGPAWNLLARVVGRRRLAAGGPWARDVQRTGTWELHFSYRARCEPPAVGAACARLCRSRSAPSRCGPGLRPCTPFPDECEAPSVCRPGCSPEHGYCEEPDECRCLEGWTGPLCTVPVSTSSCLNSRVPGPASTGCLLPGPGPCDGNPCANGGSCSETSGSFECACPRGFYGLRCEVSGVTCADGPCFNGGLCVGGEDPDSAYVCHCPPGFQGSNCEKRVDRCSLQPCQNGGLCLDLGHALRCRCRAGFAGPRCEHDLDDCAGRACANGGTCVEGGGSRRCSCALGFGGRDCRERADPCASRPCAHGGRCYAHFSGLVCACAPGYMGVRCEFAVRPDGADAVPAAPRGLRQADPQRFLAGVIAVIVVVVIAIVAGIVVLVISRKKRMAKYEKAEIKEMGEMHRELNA

MFI [1]: 172 MFI
MFI [2]: 813 MFI
MFI [3]: 131
MFI [4]: 6820 MFI
MFI [5]: 7520 MFI
MFI [6]: 11300 MFI
MFI [7]: 461
MFI [8]: 10300 MFI
MFI [9]: 218
Kd [10]: 0.0194 nM
koff [10]: 3.49e-05 s⁻¹
kon [10]: 1.8e+06 M⁻¹ s⁻¹
MFI [11]: 1200 MFI
MFI [12]: 123 MFI
MFI [13]: 1130
MFI [14]: 11800 MFI
MFI [15]: 4290 MFI
MFI [16]: 914
MFI [17]: 1340 MFI
MFI [18]: 163 MFI
MFI [19]: 937 MFI
MFI [20]: 1020
Emax of OD450 nm binding value [21]: 0.67 OD450 nm
MFI [22]: 1490 MFI
MFI at 0.00128 nM [23]: 97 MFI
MFI at 0.0064 nM [23]: 113 MFI
MFI at 0.032 nM [23]: 169 MFI
MFI at 0.16 nM [23]: 371 MFI
MFI at 0.8 nM [23]: 720 MFI
MFI at 4 nM [23]: 829 MFI
MFI at 20 nM [23]: 962 MFI
MFI at 100 nM [23]: 1190 MFI
MFI [24]: 302 MFI
MFI [25]: 114 MFI
MFI [26]: 389 MFI
MFI [27]: 1410
MFI [28]: 152 MFI
MFI [29]: 120 MFI
MFI [30]: 4640 MFI
Emax of OD450 nm binding value [31]: 0.39 OD450 nm
MFI [32]: 1120 MFI
MFI [33]: 6270 MFI
MFI [34]: 350 MFI
MFI [35]: 117 MFI
MFI [36]: 114
B1: Hab015VL4VH1b-hFc (scFv, part only; not given: VL-VH linker and human IgG1 Fc, V domains shown, not shown: another chain or arm of the molecule; a dimerising Fc or GST; small tags and cut ends)
VL: NIVLTQSPATLSLSPGERATLSCKASENVGTYVSWFQQKPGQSPRLLIYGASNRYTGIPARFSGSGSGTDFTLTISSLEPEDFAVYYCGQFYSFPSTFGGGTKVEIK
VH: EVQLVESGGGLVKPGGSLRLSCAASGITFSNFWMNWVRQAPGKGLEWVGQIRLKSEDYATHYAESVKGRFTISREDSKNTVYLQMNSLKTEDTAVYYCTTGYYFDYWGQGTTVTVSS

MFI [1]: 170 MFI
MFI [2]: 884 MFI
MFI [3]: 133
MFI [4]: 7330 MFI
MFI [5]: 7480 MFI
MFI [6]: 12400 MFI
MFI [7]: 469
MFI [8]: 11200 MFI
MFI [9]: 211
Kd [10]: 0.000116 nM
koff [10]: 2.03e-07 s⁻¹
kon [10]: 1.75e+06 M⁻¹ s⁻¹
MFI [11]: 1150 MFI
MFI [12]: 130 MFI
MFI [13]: 1180
MFI [14]: 12200 MFI
MFI [15]: 4260 MFI
MFI [16]: 913
MFI [17]: 1460 MFI
MFI [18]: 153 MFI
MFI [19]: 861 MFI
MFI [20]: 1050
Emax of OD450 nm binding value [21]: 0.64 OD450 nm
MFI [22]: 1590 MFI
MFI at 0.00128 nM [23]: 101 MFI
MFI at 0.0064 nM [23]: 114 MFI
MFI at 0.032 nM [23]: 173 MFI
MFI at 0.16 nM [23]: 361 MFI
MFI at 0.8 nM [23]: 692 MFI
MFI at 4 nM [23]: 821 MFI
MFI at 20 nM [23]: 943 MFI
MFI at 100 nM [23]: 1270 MFI
MFI [24]: 265 MFI
MFI [25]: 118 MFI
MFI [26]: 352 MFI
MFI [27]: 1550
MFI [28]: 144 MFI
MFI [29]: 120 MFI
MFI [30]: 4370 MFI
Emax of OD450 nm binding value [31]: 0.49 OD450 nm
MFI [32]: 1260 MFI
MFI [33]: 6820 MFI
MFI [34]: 361 MFI
MFI [35]: 118 MFI
MFI [36]: 118
B2: Hab015VL4VH6a-hFc (scFv, part only; not given: scFv linker and human IgG1 Fc, V domains shown, not shown: another chain or arm of the molecule; a dimerising Fc or GST; small tags and cut ends)
VL: B1 VL
VH: B1 VH with G42E, E56D

MFI [1]: 137 MFI
MFI [2]: 253 MFI
MFI [3]: 125
MFI [4]: 32500 MFI
MFI [5]: 33900 MFI
MFI [6]: 15700 MFI
MFI [7]: 356
MFI [8]: 15300 MFI
MFI [9]: 178
Kd [10]: 0.0946 nM
koff [10]: 0.000129 s⁻¹
kon [10]: 1.36e+06 M⁻¹ s⁻¹
MFI [11]: 1730 MFI
MFI [12]: 110 MFI
MFI [13]: 732
MFI [14]: 16500 MFI
MFI [15]: 8680 MFI
MFI [16]: 547
MFI [17]: 332 MFI
MFI [18]: 245 MFI
MFI [19]: 2060 MFI
MFI [20]: 596
Emax of OD450 nm binding value [21]: 0.1 OD450 nm
MFI [22]: 382 MFI
MFI at 0.00128 nM [23]: 91 MFI
MFI at 0.0064 nM [23]: 96 MFI
MFI at 0.032 nM [23]: 112 MFI
MFI at 0.16 nM [23]: 179 MFI
MFI at 0.8 nM [23]: 348 MFI
MFI at 4 nM [23]: 567 MFI
MFI at 20 nM [23]: 770 MFI
MFI at 100 nM [23]: 1120 MFI
MFI [24]: 555 MFI
MFI [25]: 103 MFI
MFI [26]: 565 MFI
MFI [27]: 1030
MFI [28]: 299 MFI
MFI [29]: 207 MFI
MFI [30]: 7320 MFI
Emax of OD450 nm binding value [31]: 0.08 OD450 nm
MFI [32]: 296 MFI
MFI [33]: 27700 MFI
MFI [34]: 192 MFI
MFI [35]: 180 MFI
MFI [36]: 108
B3: Hab014VL3VH1-hFc (scFv, part only; not given: VL-VH linker and human IgG1 Fc, V domains shown, not shown: another chain or arm of the molecule; a dimerising Fc or GST; small tags and cut ends)
VL: DIVMTQSPDSLAVSLGERATINCKASEDIYNRLAWYQQKPGQTPKLLISGATSLETGVPDRFSGSGSGKDFTLTISSLQAEDVAVYYCQQYWSLPWTFGGGTKVEIK
VH: EVQLVQSGAEVKKPGASVKVSCKASGYTFTDYYMNWVRQAPGQRLEWMGDINPNHGDTGYNQKFTGRVTITVDKSASTAYMELSSLRSEDTAVYYCARNFFYYGTTYGWYFDVWGQGTTVTVSS
